Measured values as given in patent US20210047435A1 (Janssen / Centocor, published 2021).
Numbering of substitutions follows the chain as printed. Names and notes keep the numbering of the source.

Target: T1, LTBR (form used for the KD not stated) (human, UniProt P36941 31-227, limits assumed)
T1 construct: neither the method nor the LTBR construct is described; also called human LTBR; TNFRSF3
Assay: method not stated; stapled scFv variant against LTBR

T1 sequence (P36941 31-227 limits assumed): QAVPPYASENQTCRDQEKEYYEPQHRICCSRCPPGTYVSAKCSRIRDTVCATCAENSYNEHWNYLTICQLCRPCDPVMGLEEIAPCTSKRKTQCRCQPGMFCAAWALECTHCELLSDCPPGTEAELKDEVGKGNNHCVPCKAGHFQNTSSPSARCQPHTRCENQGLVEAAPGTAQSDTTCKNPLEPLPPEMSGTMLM

B1: stapled scFv (VL3 Y36F S49Y F87Y) BHA10 (VH-VL) (scFv)
scFv: QVQLVQSGAEVKKPGSSVKVSCKASGYTFTTYYLHWVRQAPGCGLEWMGWIYPGNVHAQYNEKFKGRVTITADKSTSTAYMELSSLRSEDTAVYYCARSWEGFPYWGQGTTVTVSSGGGSGGGSGCPPCGGGGDIQMTQSPSSLSASVGDRVTITCKASQNVGINVAWFQQKPGKAPKSLIYSASYRYSGVPSRFSGSGSGTDFTLTISSLQPEDFATYYCQQYDTYPFTFGCGTKVEIK
Work on B1 yielded a Kd of about 60 nM.

B2: stapled scFv (VH CDR1 Y33A) BHA10 (VH-VL) (scFv)
scFv: B1 scFv with Y33A, F169Y, Y182S, Y220F
Work on B2 yielded a Kd of about 600 nM.
